Measurements: paper PMC8562343

Biological target: Transportin-1 (TNPO1) (UniProt Q92973)
Assay: ITC; MicroCal VP-ITC, 28 injections of 8 µl at 25°C; 50 mM Tris-HCl pH 7.5, 150 mM NaCl, 5 mM TCEP, 0.04% NaN3; standard one-site model; which protein was in the syringe is not given

Chain of UniProt Q92973 (Q92973 whole entry): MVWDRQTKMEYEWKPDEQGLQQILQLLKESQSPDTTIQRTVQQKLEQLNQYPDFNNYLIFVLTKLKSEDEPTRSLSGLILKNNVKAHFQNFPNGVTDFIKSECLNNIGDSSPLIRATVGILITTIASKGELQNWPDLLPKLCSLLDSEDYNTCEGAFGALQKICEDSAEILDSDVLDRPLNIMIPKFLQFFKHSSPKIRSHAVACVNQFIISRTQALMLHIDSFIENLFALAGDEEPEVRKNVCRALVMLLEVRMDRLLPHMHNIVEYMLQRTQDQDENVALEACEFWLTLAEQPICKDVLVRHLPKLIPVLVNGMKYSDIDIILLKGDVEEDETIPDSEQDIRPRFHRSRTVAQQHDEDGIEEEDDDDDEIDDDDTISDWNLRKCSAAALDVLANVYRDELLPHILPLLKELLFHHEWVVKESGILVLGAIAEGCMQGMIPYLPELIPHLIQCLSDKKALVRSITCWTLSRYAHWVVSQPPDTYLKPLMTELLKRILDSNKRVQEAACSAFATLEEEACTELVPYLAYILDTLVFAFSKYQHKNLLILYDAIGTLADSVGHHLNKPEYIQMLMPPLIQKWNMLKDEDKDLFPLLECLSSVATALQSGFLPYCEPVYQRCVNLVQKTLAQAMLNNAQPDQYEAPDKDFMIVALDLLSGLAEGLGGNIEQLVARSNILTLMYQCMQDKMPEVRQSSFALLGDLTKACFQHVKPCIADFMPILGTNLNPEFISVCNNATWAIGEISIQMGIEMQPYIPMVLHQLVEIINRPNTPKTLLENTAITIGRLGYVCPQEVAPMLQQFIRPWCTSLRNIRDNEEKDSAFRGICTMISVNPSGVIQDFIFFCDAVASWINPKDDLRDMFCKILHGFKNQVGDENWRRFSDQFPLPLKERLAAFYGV

Kd: 124 nM
Substance: RG/RGG region of cold-inducible RNA-binding protein (CIRBP-RGG, amino acids 68-137) (from UniProt Q14011 68-137) (domain or fragment)
